Test system: MS2 coat protein
Assay: apparent KD of MS2 coat protein; designed switch direction (-1 OFF switch, 1 ON switch): -1; higher = weaker reporter binding
How it was run: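 For each design, the apparent KD is the median over clusters of curves fitted to normalised cluster fluorescence. Clusters held RNA switches with common flanks, transcribed on Illumina chips by stalled E. coli RNA polymerase. These were titrated with SNAP-549-labelled MS2 coat protein, doubling from 0.7 or 1.5 nM to 3 µM, without input, with 200 uM small-molecule ligand, or with an oligonucleotide input.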

[1] = Eterna round: R95, input ligand: FMN 200 uM
[2] = Eterna round: R95, input ligand: microRNA oligo, concentration not stated
[3] = Eterna round: R95, input ligand: none
[4] = input ligand: microRNA oligo, concentration not stated

| Sequence | apparent KD of MS2 coat protein (input ligand: FMN 200 uM) [nM] | apparent KD of MS2 coat protein (input ligand: none) [nM] | apparent KD of MS2 coat protein [1] [nM] | apparent KD of MS2 coat protein [2] [nM] | apparent KD of MS2 coat protein [3] [nM] | apparent KD of MS2 coat protein [4] [nM] |
| --- | --- | --- | --- | --- | --- | --- |
| AAGAAUCAAGGAUAUGCAUGAUACGACAUGAGGAUCACCCAUGUCCUCACGCGUAUCCUUGCAGAAGGUGAGUAUA [EX5 A.22] (Eterna round: R97, puzzle: Exclusion 5) | 15 | 15.3 |  |  |  |  |
| GAUAGGACGUGGUCAGGUAACAUGAGGAUCACCCAUGUAGGUCUAGGAACAAGCUUUUUGAAAGCUCGUCUUAUAAA [JR_SV3TOV1_Sub056] (puzzle: Sensor v3, turn-off variant 1) |  |  | 17.4 | 18.9 | 21.2 |  |
| UAGAAGGUAGGAUAUACGAAUAAAUAGGGUAGUAAUAAUACACAUGAGGAUCACCCAUGUAGAAGGACCAAGAU [Mat - Exclusion 2 - Mod of my Tesla design - D31] (puzzle: Exclusion 2) |  |  | 44.2 | 20.1 | 23 |  |
| UAUGGUUAAGUCAGGAUAUGCUCAUAGAAGUCUAUGCAGAAGGGACAUGAGGAUCACCCAUGUAUGGUCGUGUU [Ex4 #65] (Eterna round: R97, puzzle: Brourd's mod of Exclusion 4) | 142 | 70.9 |  |  |  |  |
| CUAGCGAUUGUAGGAUAUCGAUGUGUUUCACAUCGAGAAGGACAUGAGGAUCACCCAUGUGAAGGAUCGUGAGAUCCACGCUAG [JL ENG1 3.78] (Eterna round: R96, puzzle: Exclusion NG 1) | 76.6 | 19.7 |  |  |  | 17.5 |
| GCAGGAUAAGUCAGGAUAUACCUAUGGAUACAUAGGUAGAAGGGACAUGAGGAUCACCCAUGUGCCUCGCCUGC [Fiskers BMX 4 - 72] (puzzle: Brourd's mod of Exclusion 4) |  |  |  | 12.4 |  |  |
| GUGUAACUACACGGGCUCAACAUGAGGAUCACCCAUGUCAUACACGCAAGCUUUUCGCUUGUCUUAUCUGUCCGUGA [Mainesleed] (puzzle: Sensor v3, turn-off variant 1) |  |  | 12.5 | 14.2 | 11.3 |  |
| UUUUUCUCAGGAUAUACAUGAGGAUCACCCAUGUAUAUUAAGGAUAAUACAUGGGAAUGUAGAAGGGAGCUCAU [Omei Ex3 Pseudoloop 12] (Eterna round: R97, puzzle: Exclusion 3) | 106 | 160 |  |  |  |  |
| AACAGUAGAGGAUAUACACGAACAAACAUGAGGAUCACCCAUGUGAAACCGUGCUGUCCGGUAGAAGGCUACUAUA [Zavetiaton] (Eterna round: R97, puzzle: Exclusion 5) | 40.6 | 17.4 |  |  |  |  |
| AUCGUGCAGCUUUGCUGUACGAGUACAUGAGGAUCACCCAUGUAGGAUAUGGUACGCUUUGCGUGCUAGAAGGAUAUGAGUAGG [EX ENG3 1.42] (Eterna round: R96, puzzle: Exclusion NG 3) | 84.3 | 48.3 |  |  |  | 43 |
| GCAUGGCGAGGAUAUACAUGAGGAUCACCCAUGUGAGAAUAAUAAGUGAGGAAGAAAAGUAGAAGGCGCUGUGG [Mat - Exclusion 3 - Mod of Salish D64] (puzzle: Exclusion 3) |  |  | 250 | 70.1 | 97.8 |  |
| AGUCAGGCGGUAGGAUAUCCAAACCGAGUGACCCUUUCAUAACAUGAGGAUCACCCAUGUCGGUGGGAGAAGGGCCGUACGGCA [Mat - Exclusion NG 2 - Mod of JL - D65] (Eterna round: R96, puzzle: Exclusion NG 2) | 410 | 159 |  |  |  | 173 |
| GUAUAACAUGUAGGAUAUGCGUGGCGAAGCUAUGCAGAAGGACAUGAGGAUCACCCAUGUUAUAGCGUCUGCGUACAGAUGCUA [Mat - Exclusion NG 1 - Mod of JL - D93] (Eterna round: R96, puzzle: Exclusion NG 1) | 204 | 24.5 |  |  |  | 26.2 |
| UGAUGUAGAGGAUAUUGUAUGGCUCACAUGAGGAUCACCCAUGUAGGAUCACCUAGAGCCCGAGAAGGCUAGAGGU [Eternabot (L2) Solution 4] (Eterna round: R97, puzzle: Exclusion 5) | 47 | 45.8 |  |  |  |  |
| CAAAAUGCUCGAGGAUAUCCGAGGAGCAGAAAAGGAGAAGGCGAGGAUAAAGAACAUGAGGAUCACCCAUGUGAACCUCGUAAU [Lereores] (Eterna round: R96, puzzle: Exclusion NG 1) | 16.9 | 16.1 |  |  |  | 14.6 |
| CUAUUACGAGGAUAUGAUUUAAAUAACAUGAGGAUCACCCAUGUUUUUACGUUAUUUUAUUUAGAAGGCGUAUUGU [JR_E5_Sub028] (puzzle: Exclusion 5) |  |  | 34.1 | 53.7 | 61.5 |  |
| GAUCAGCUUGUGAGGAUAUCCGGGCAUAAAGGCUAGGAGAAGGUACAUGAGGAUCACCCAUGUAGAGUCCUGGG [Bisoraxe] (puzzle: Brourd's mod of Exclusion 4) |  |  |  | 41.2 |  |  |
| AAAGCGCGGUGAUAAUCUGUAACAUGAGGAUCACCCAUGUAGCAGGAUAUGGGCACAGUGGAAACUCAGAAGGGCUAUAAGCGC [Eternabot solution 21] (Eterna round: R96, puzzle: Exclusion NG 3) | 171 | 288 |  |  |  | 369 |
| GAGAAACAUGAGGAUCACCCAUGUGAGGAUAUGAAAAAGAAAAGAAAAGAAAGAAGAAUCAGAAGGCACAAAGC [salish99-ex1_r3_091] (puzzle: Exclusion 1) |  |  | 23.1 | 32.4 | 30 |  |
| GUGUAACAUGAGGAUCACCCAUGUCAGGAUAUGCGAAUUUCAUCAAAAGAUGAAAUUUGCAGAAGGGACUGUAC [Omei Ex1 A24] (Eterna round: R97, puzzle: Exclusion 1) | 99.2 | 60.9 |  |  |  |  |
| CUUCGUAUAGAGGAUAUAGGAUACCUCGGUGUCCUAGAAGGCUGUACAUGAGGAUCACCCAUGUACUUCAGAUC [Exclusion 6 - B - 14:d] (puzzle: Exclusion 6) |  |  |  | 12.6 |  |  |
| GUAGAGUAAGGAUAUAGUGAAUAGGAUAGAAUGGUUAGAAACUAGAAGGUACAUGAGGAUCACCCAUGUAAUGU [Excluse me!!!! 21 - Jieux - Exclusion 4] (puzzle: Exclusion 4) |  |  |  | 20.4 |  |  |
| AUCAUGUAAGGAUAUCUGACAUGUGACUUCGGUCACUGUUCAGAGAAGGUACAUGAGGAUCACCCAUGUAGAAC [Ex4-3: 44] (puzzle: Exclusion 4) |  |  |  | 59.6 |  |  |
| UAAAUGUGAGGAUAUUCGAUUUACUCGGAGACGAGUAGAUCGGAGAAGGCACAUGAGGAUCACCCAUGUUCCUU [Mat - Exclusion 4 - JL Mod - D10] (Eterna round: R97, puzzle: Exclusion 4) | 234 | 23.2 |  |  |  |  |
| CGUGUCUUUCACGUGAGUGGUGGGUGCAACAGGUGGGAAACAUGAGGAUCACCCAUGUCCUCAUUUGCUCGUCUUAU [Grok-var2-02] (puzzle: Sensor v3, turn-off variant 2) |  |  | 686 | 457 | 572 |  |
